We go through 1 molecule from patent JP2014141434A (dated 2014).

Where a chain is given by its changes, count along the chain named.

In assay [1] the target is T1, N末端FLAG−tag付加型カニクイザルROBO4 cynoROBO4−2 (cynomolgus monkey, UniProt Q8WZ75 28-1007 (human entry)).
T1 construct: also called pCI−FLAG−cynoROBO4−2
T1 chain: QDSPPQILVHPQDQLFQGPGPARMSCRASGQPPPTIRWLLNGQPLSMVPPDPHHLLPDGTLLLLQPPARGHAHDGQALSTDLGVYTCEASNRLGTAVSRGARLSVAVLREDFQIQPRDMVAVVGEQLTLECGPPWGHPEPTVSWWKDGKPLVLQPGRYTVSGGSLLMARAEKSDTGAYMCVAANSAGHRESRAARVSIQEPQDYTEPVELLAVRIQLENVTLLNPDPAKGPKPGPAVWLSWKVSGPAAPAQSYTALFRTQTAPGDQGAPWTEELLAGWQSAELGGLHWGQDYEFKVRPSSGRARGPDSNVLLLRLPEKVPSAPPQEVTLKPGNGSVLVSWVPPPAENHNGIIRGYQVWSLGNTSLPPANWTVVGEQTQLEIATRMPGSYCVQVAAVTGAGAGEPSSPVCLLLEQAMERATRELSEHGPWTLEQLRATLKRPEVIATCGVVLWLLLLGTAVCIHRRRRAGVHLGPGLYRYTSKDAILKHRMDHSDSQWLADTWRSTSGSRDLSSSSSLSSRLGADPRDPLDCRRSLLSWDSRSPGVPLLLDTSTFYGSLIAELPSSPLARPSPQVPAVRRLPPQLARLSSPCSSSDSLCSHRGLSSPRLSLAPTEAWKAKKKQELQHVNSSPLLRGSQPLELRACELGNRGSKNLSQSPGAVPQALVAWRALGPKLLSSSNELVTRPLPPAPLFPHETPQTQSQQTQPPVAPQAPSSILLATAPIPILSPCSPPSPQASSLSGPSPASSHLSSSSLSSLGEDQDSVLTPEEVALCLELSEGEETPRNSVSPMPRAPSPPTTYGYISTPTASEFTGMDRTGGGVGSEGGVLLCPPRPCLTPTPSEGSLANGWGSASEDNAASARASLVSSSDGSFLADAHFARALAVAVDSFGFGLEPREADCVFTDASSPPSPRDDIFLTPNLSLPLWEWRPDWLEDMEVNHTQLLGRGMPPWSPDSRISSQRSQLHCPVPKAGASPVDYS
As to the kind of experiment: flow cytometry, transfected HEK293 cells, 10 μg/mL.

Assay [2] concerns the target T2, N末端FLAG−tag付加型カニクイザルROBO4 cynoROBO4−1 (cynomolgus monkey, UniProt Q8WZ75 28-1007 (human entry)).
T2 construct: also called pCI−FLAG−cynoROBO4−1
T2 chain: T1 chain with R69W, T175A, R192H, L423P, L549P, L567P, L603F
As to the kind of experiment: flow cytometry, transfected HEK293 cells, 10 μg/mL. In general terms: In flow cytometry, cells or beads pass a laser one at a time.

B1: 抗ROBO4マウスモノクローナル抗体 MAb1 (antibody, V domains shown)
VH: EVQLVESGGGLVKPGGSLKLSCAASGFTFSTYAMSWVRQTPEKRLEWVATISNGGTYTYYPDSVKGRFTISRDNAENTLYLQMSSLRSEDTAMYFCARLIYYDYLDYWGHGTTLTVSS
VL: DAVMTQTPLSLPVSLGDQASISCRSSQSLENSNGNTYLNWYFQKPGQSPQLLIYRVSNRFSGVLDRFSGSGSGTDFTLKISRVEAEDFGVYFCLQVTHVPWTFGGGTKLEIKR
notes: Mouse IgG1 (gamma 1) / kappa from a hybridoma; The constant regions are not in the listing; also called MAb1
With B1, the binding result in assay [1] and in assay [2] was “binds” in each case.
